Results: patent US20150203577A1 (Chugai, published 2015)
Numbering of substitutions follows the chain as printed.

T1: mouse FcγRII (mouse, UniProt P08101 30-210)
T1 construct: also called mFcγRII; mFcgRII
T1 sequence: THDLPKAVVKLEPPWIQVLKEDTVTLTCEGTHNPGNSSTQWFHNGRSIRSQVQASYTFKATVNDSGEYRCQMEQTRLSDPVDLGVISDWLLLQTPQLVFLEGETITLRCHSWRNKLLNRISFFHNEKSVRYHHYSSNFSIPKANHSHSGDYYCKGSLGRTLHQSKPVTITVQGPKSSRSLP

T2: mouse FcγRIII (mouse, UniProt P08508 31-215)
T2 construct: also called mFcγRIII; mFcgRIII
T2 chain: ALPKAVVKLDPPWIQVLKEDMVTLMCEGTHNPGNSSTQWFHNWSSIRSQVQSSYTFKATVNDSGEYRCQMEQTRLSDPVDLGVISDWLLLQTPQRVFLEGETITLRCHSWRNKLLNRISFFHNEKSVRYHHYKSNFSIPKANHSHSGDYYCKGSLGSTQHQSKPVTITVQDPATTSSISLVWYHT

B1: MB294 (antibody, mouse IgG1, kappa)
heavy: QVQLQESGPGLVKPSETLSLTCAVSGHSISHDHAWSWVRQPPGEGLEWIGFISYSGITNYNPSLQGRVTISRDNSKNTLYLQMNSLRAEDTAVYYCARSLARTTAMDYWGEGTLVTVSSAKTTPPSVYPLAPGSAAQTNSMVTLGCLVKGYFPEPVTVTWNSGSLSSGVHTFPAVLQSDLYTLSSSVTVPSSTWPSETVTCNVAHPASSTKVDKKIVPRDCGCKPCICTVPEVSDEFIFPPKPKDVLTITLTPKVTCVVVDISKDDPEVQFSWFVDDVEVHTAQTQPREEQFNSTFRSVSELPIMHQDWLNGKEFKCRVNSAAFPAPIEKTISKTKGRPKAPQVYTIPPPKEQMAKDKVSLTCMITDFFPEDITVEWQWNGQPAENYKNTQPIMDTDGSYFVYSKLNVQKSNWEAGNTFTCSVLHEGLHNHHTEKSLSHSPGK
light: not shown
notes: copies: 2 + 2
B2: MB322 (antibody, mouse IgG1, kappa)
heavy: B1 heavy with T229E, V230D, P231E, S234E, E236V
light: not shown
notes: copies: 2 + 2
B3: MB309 (antibody, mouse IgG1, kappa)
heavy: B1 heavy with V230D, P231E, E236V
light: not shown
notes: copies: 2 + 2
B4: MB311 (antibody, mouse IgG1, kappa)
heavy: B1 heavy with V230D
light: not shown
notes: copies: 2 + 2
B5: MB307 (antibody)
heavy: B1 heavy with V230A
light: not shown
notes: copies: 2 + 2
B6: MB321 (antibody, mouse IgG1, kappa)
heavy: B1 heavy with T229E, V230A, P231E, S234E, E236H
light: not shown
notes: copies: 2 + 2
B7: MB299 (antibody, mouse IgG1, kappa)
heavy: B1 heavy with T229E, V230A, E236V
light: not shown
notes: copies: 2 + 2
B8: MB314 (antibody, mouse IgG1, kappa)
heavy: B1 heavy with P231E
light: not shown
notes: copies: 2 + 2
B9: MB304 (antibody, mouse IgG1, kappa)
heavy: B1 heavy with T229E, E236H
light: not shown
notes: copies: 2 + 2
B10: MB318 (antibody, mouse IgG1, kappa)
heavy: B1 heavy with T229E, P231E, S234E, E236V
light: not shown
notes: copies: 2 + 2
B11: MB300 (antibody, mouse IgG1, kappa)
heavy: B1 heavy with T229E, V230D, E236V
light: not shown
notes: copies: 2 + 2
B12: MB320 (antibody, mouse IgG1, kappa)
heavy: B1 heavy with T229E, V230A, P231E, S234E
light: not shown
notes: copies: 2 + 2
B13: MB296 (antibody, mouse IgG1, kappa)
heavy: B1 heavy with E236V, S263A
light: not shown
notes: copies: 2 + 2
B14: MB310 (antibody, mouse IgG1, kappa)
heavy: B1 heavy with V230D, S234E, E236V
light: not shown
notes: copies: 2 + 2
B15: MB312 (antibody, mouse IgG1, kappa)
heavy: B1 heavy with V230D, E236H
light: not shown
notes: copies: 2 + 2
B16: MB301 (antibody, mouse IgG1, kappa)
heavy: B1 heavy with T229E, P231E, E236V
light: not shown
notes: copies: 2 + 2
B17: MB315 (antibody, mouse IgG1, kappa)
heavy: B1 heavy with P231E, E236H
light: not shown
notes: copies: 2 + 2
B18: MB308 (antibody, mouse IgG1, kappa)
heavy: B1 heavy with V230A, E236H
light: not shown
notes: copies: 2 + 2
B19: MB303 (antibody, mouse IgG1, kappa)
heavy: B1 heavy with T229E
light: not shown
notes: copies: 2 + 2
B20: MB317 (antibody, mouse IgG1, kappa)
heavy: B1 heavy with S234E, E236H
light: not shown
notes: copies: 2 + 2
B21: MB306 (antibody, mouse IgG1, kappa)
heavy: B1 heavy with V230A, S234E, E236V
light: not shown
notes: copies: 2 + 2
B22: MB319 (antibody, mouse IgG1, kappa)
heavy: B1 heavy with T229E, V230A, P231E, S234E, E236V
light: not shown
notes: copies: 2 + 2
B23: MB316 (antibody, mouse IgG1, kappa)
heavy: B1 heavy with S234E
light: not shown
notes: copies: 2 + 2
B24: MB295 (antibody, mouse IgG1, kappa)
heavy: B1 heavy with E236H
light: not shown
notes: copies: 2 + 2
B25: MB313 (antibody, mouse IgG1, kappa)
heavy: B1 heavy with P231E, S234E, E236V
light: not shown
notes: copies: 2 + 2

Each binder was assayed against T1, mouse FcγRII (assay: SPR Biacore T200, KD ratio).
Source text: (§1) The antibody H chain variable region used was the variable region H237 (SEQ ID NO: 1) of the H chain VH3-IgG1 of the anti-IL-6 receptor antibody Fv4-IgG1 described in WO2009/125825. The antibody L chain commonly used was the L chain MRAL-k0 (SEQ ID NO: 2) of the anti-IL-6 receptor antibody tocilizumab. […] The resulting variant group was designated as MB110 variants. These variants were expressed and purified by the method of Reference Example 1 and evaluated for their binding to mFcγRII and mFcγRIII by the method of Reference Example 2 using Biacore T200.
(§2) Each altered antibody was analyzed for its interaction with each Fcγ receptor prepared above using Biacore T100 (GE Healthcare Japan Corp.), Biacore T200 (GE Healthcare Japan Corp.), Biacore A100, or Biacore 4000. The running buffer used was HBS-EP+ (GE Healthcare Japan Corp.). The assay temperature was set to 25° C. The sensor chips used were chips prepared by immobilizing Protein L (ACTIGEN or BioVision) onto Series S Sensor Chip CM5 (GE Healthcare Japan Corp.) or Series S Sensor Chip CM4 (GE Healthcare Japan Corp.) by the amine coupling method.
(§3) In order to calculate the KD value of each altered antibody for FcγR, kinetic analysis was conducted according to the following method: first, the antibody of interest was captured onto any of these chips and allowed to interact with mFcγR diluted with a running buffer. For the obtained sensorgram, the assay results were globally fit into the 1:1 Langmuir binding model using Biacore Evaluation Software to calculate an association rate constant ka (L/mol/s) and a dissociation rate constant kd (1/s). From these values, the dissociation constant KD (mol/L) was calculated.

Row | Relative mFcγRII-binding activity (MB110 = 1) | relative mFcγRII-binding activity (mIgG1 = 1) | Binder
1 | 0.62 fold | 7.6 fold | B1
2 | 0.75 fold | 9.2 fold | B2
3 | 2.27 fold | 27.9 fold | B3
4 | 1.43 fold | 17.6 fold | B4
5 | 0.92 fold | 11.3 fold | B5
6 | 0.28 fold | 3.5 fold | B6
7 | 4.96 fold | 60.8 fold | B7
8 | 0.58 fold | 7.1 fold | B8
9 | 1.11 fold | 13.7 fold | B9
10 | 3.29 fold | 40.5 fold | B10
11 | 4.25 fold | 52.3 fold | B11
12 | 0.26 fold | 3.2 fold | B12
13 | 1.71 fold | 21 fold | B13
14 | 3.16 fold | 38.8 fold | B14
15 | 4.51 fold | 55.4 fold | B15
16 | 3.52 fold | 43.2 fold | B16
17 | 0.48 fold | 5.9 fold | B17
18 | 2.14 fold | 26.3 fold | B18
19 | 0.64 fold | 7.8 fold | B19
20 | 0.49 fold | 6 fold | B20
21 | 5.36 fold | 65.8 fold | B21
22 | 4.07 fold | 50 fold | B22
23 | 0.61 fold | 7.4 fold | B23
24 | 0.62 fold | 7.6 fold | B24
25 | 3.27 fold | 40.1 fold | B25

Target: T2, mouse FcγRIII
Assay: SPR Biacore T200, KD ratio
Source text: as §1, §2, §3

Row | Relative mFcγRIII-binding activity (MB110 = 1) | relative mFcγRIII-binding activity (mIgG1 = 1) | Binder
26 | 0.47 fold | 1.9 fold | B1
27 | 0.31 fold | 1.3 fold | B2
28 | 0.96 fold | 3.9 fold | B3
29 | 0.52 fold | 2.1 fold | B4
30 | 0.55 fold | 2.2 fold | B5
31 | 0.05 fold | 0.2 fold | B6
32 | 1.61 fold | 6.5 fold | B7
33 | 0.27 fold | 1.1 fold | B8
34 | 0.5 fold | 2 fold | B9
35 | 0.96 fold | 3.9 fold | B10
36 | 1.41 fold | 5.7 fold | B11
37 | 0.11 fold | 0.4 fold | B12
38 | 1.39 fold | 5.6 fold | B13
39 | 0.96 fold | 3.8 fold | B14
40 | 0.87 fold | 3.5 fold | B15
41 | 1.16 fold | 4.6 fold | B16
42 | 0.2 fold | 0.8 fold | B17
43 | 0.67 fold | 2.7 fold | B18
44 | 0.32 fold | 1.3 fold | B19
45 | 0.12 fold | 0.5 fold | B20
46 | 1.05 fold | 4.2 fold | B21
47 | 0.89 fold | 3.6 fold | B22
48 | 0.31 fold | 1.2 fold | B23
49 | 0.42 fold | 1.7 fold | B24
50 | 0.99 fold | 4 fold | B25
